Positions of bridges follow the written chain, without caps; N, C: chain ends. No end group written: not given here. *: point of attachment. Pent4ynoyl = C#CCCC(=O)*
Experiments:
ferritin (FTH) [1] = target: T1, ferritin (FTH) (Homo sapiens, UniProt P02794); assay: Encapsulation of fluorescent dye-modified peptide into FTH, column chromatography with absorbance at 480 nm and LC-MS; details: absorbance at 480 nm at elution position of 24-mer FTH; LC-MS
T1 construct: made in house; host or cells: Escherichia coli BL21 (DE3), plasmid pET20-FTH
T1 sequence (P02794 whole entry): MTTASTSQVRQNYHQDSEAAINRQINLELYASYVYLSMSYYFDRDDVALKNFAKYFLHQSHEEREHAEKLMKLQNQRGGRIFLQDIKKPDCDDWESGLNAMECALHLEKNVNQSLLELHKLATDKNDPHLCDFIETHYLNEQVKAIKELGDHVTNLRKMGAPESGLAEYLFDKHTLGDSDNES
Procedure: Of a 50 mM glycine hydrochloride buffer (pH 2.3) that contains FTH (chemical formula weight: 509,421) at a final concentration of 5 mg/mL and the peptide at a final concentration of 0.5 mM, 0.5 mL was left to stand at room temperature for 15 minutes. Next, 50 μL of a 1 M Tris hydrochloride buffer (pH 9.0) was added for neutralization, and the resulting solution was left to stand at room temperature for 3 hours. After the standing, the resulting solution was centrifuged (at 15,000 rpm for one minute). Then, the supernatant was collected and the volume was increased up to 3 mL with a 10 mM Tris hydrochloride buffer (pH 8). The resulting solution was injected into the HiPrep 26/60 Sephacryl S-300 HR column (GE Healthcare Inc.) equilibrated with a 10 mM Tris-HCl buffer (pH 8.0) to separate and purify 24-mer FTH by size at a flow rate of 1.3 mL/minute. The purified ferritin was analyzed using a HiPrep 16/60 Sephacryl S-300 HR column (GE Healthcare Inc.) equilibrated with a 10 mM Tris-HCl buffer (pH 8.0) at a flow rate of 0.5 mL/minute and confirmed as the absorbance at 480 nm unobservable from FTH only, at the same position as that of a peak of FTH.
The solution containing the FTH was concentrated to 0.25 mL by centrifugal ultrafiltration using Vivaspin 20-100K (GE Healthcare Inc.). […] For the LC-MS analysis, 50 μL of a 1 M glycine hydrochloride buffer (pH 2.3) was added to 50 μL of the sample solution and then the resulting solution was left to stand at room temperature for 15 minutes. To the solution 900 μL of ethanol was added. Next, the resulting solution was stirred vigorously and then centrifuged (at 15,000 rpm for five minutes) to collect its supernatant. The supernatant was analyzed using LCMS-2020 (Shimadzu Corporation) as LC-MS, inertsil (Registered trademark) ODS-3 with a particle diameter of 2 μm and 2.1 mm×50 mm (GL science) as a column. Into the column, 10 μL of the sample was injected, and eluded at a flow rate of 0.2 mL/min for 10 minutes such that a mixing ratio of a solution A (0.1% formic acid/99.9% acetonitrile) and a solution B (50% water/50% acetonitrile) was from 95:5 to 95:5. The concentration of the contained protein was determined using a protein assay CBB solution (Nacalai Tesque, Inc.) in terms of bovine albumin as a standard. The concentration of the encapsulated peptide was determined based on the absorbance at 480 nm of the fluorescent dye FAM to which PKC-F is modified.
First, the construction of FTH encapsulating two kinds of fluorescent dye-modified peptides [5(6)—FAM-[…] (SEQ ID NO: 10), FAM-SV40, chemical formula weight 1,516, and 5(6)—FAM-[…] […] (SEQ ID NO: 11), FAN-Np, chemical formula weight 384] was attempted. 0.5 mL of a 50 mM glycine hydrochloride buffer (pH 2.3) that contains FTH (chemical formula weight 509,421) at a final concentration of 5 mg/mL and a peptide at a final concentration of 0.5 mM, was left to stand at room temperature for 15 minutes. Next, 50 μL of a 1 M Tris hydrochloride buffer (pH 9.0) was added for neutralization, and the resulting solution was left to stand at room temperature for 3 hours. […] The absorbance at […] was confirmed at the same elusion position as that of ferritin 24-mer, for ferritin that was used for the operation to encapsulate FAM-SV40 therein. […] Next, the peptide amount of FAM-SV40 encapsulated in purified ferritin was quantified based on the 480 nm absorbance and by CBB staining with use of ferritin-amount-albumin as a standard.

ferritin (FTH) [2] = target: T1, ferritin (FTH); assay: Search for peptides capable of being encapsulated into ferritin by disassembly/reassembly process, LC-MS detection; parameters: key to encapsulation: “A” represents peptides with three times of confirmation of encapsulation.; “B” represents peptides with two times of confirmation of encapsulation or less.; “C” represents peptides without confirmation of encapsulation; details: for encapsulation: encapsulation into ferritin (FTH), three trials; for MS peak of peptide derived from peptide encapsulating ferritin: FTH, disassembly/reassembly process performed
Procedure: Peptides capable of being encapsulated into ferritin by disassembly/reassembly process were searched. In the disassembly/reassembly process, 1 mL of a 50 mM glycine hydrochloride buffer (pH 2.3) containing FTH at a final concentration of 5 mg/mL and the peptide at a final concentration of 0.5 mM, was left to stand at room temperature for 15 minutes. Next, 310 μL of a 1 M Tris hydrochloride buffer (pH 9.0) was added for neutralization, and left to stand at room temperature for 3 hours. After the standing, 1.2 mL of a 50 mM Tris hydrochloride buffer (pH 8.0) was added, and centrifuged (at 15,000 rpm for one minute). Thereafter, 2.5 mL of its supernatant was injected into a desalting column PD-10 (Sephadex G-25 filled product, GE Healthcare Inc.) equilibrated with a 50 mM Tris hydrochloride buffer (pH 8) for the elusion with 3.0 mL of a 50 mM Tris hydrochloride buffer (pH 8.0) to separate non-encapsulated peptides and ferritin. A whole amount (3.0 mL) of the resulting solution was concentrated to 0.1 mL by centrifugal ultrafiltration using Vivaspin 20-100K (GE Healthcare Inc.). The operation of adding 10 mL of a 50 mM Tris hydrochloride buffer to the concentrated solution and then concentrating was repeated twice to remove peptides that were not removed by PD-10 to obtain 0.1 mL of a sample solution. For the LC-MS analysis, 50 p1 of a 1 M glycine hydrochloride buffer (pH 2.3) was added to 50 μL of the sample solution and then the resulting solution was left to stand at room temperature for 15 minutes. To the solution, 900 μL of ethanol was added. Next, the resulting solution was stirred vigorously and then centrifuged (at 15,000 rpm for five minutes) for collection of the supernatant. The supernatant was analyzed using LCMS-2020 (Shimadzu Corporation) as LC-MS, Inertsil (Registered trademark) as a column, ODS-3, particle diameter of 2 μm and 2.1 mm×50 mm (GL science). Thereafter, 10 μL of the sample injected into the column was eluded at a flow rate of 0.2 mL/min for 10 minutes such that a mixing ratio of a solution A (0.1% formic acid/99.9% acetonitrile) and a solution B (50% water/50% acetonitrile) is from 95:5 to 95:5.
The encapsulation of the peptide into ferritin was studied by comparing in terms of the amount of the peptide detected by LC/MS between the sample prepared by encapsulating the peptide into ferritin at the disassembly/reassembly process and the sample prepared simply by mixing ferritin with the peptide. For example, ClAc-FHC was eluted at a retention time of 0.8 minute. […] However, the peak was not observed for the sample prepared by simply mixing the peptide with ferritin without performing the disassembly/reassembly process (FIG. 12B). FIG. 13 to FIG. 17 illustrate LC-MS results for FTH in which the peptide was encapsulated at the disassembly/reassembly process.

Row | Substance | encapsulation of peptide in FTH (ferritin (FTH) [1]) | encapsulation (ferritin (FTH) [2]) | MS peak of peptide derived from peptide encapsulating ferritin (ferritin (FTH) [2])
1 | 5(6)-FAM-CGGKRPAAIK KAGQAKKKKG (SEQ ID NO: 11) ({5(6)‑FAM}-CGGKRPAAIKKAGQAKKKKG) [FAM-Np, fluorescent dye-modified peptide, linear] | not encapsulated | C | –
2 | EEEEEEEEEE (SEQ ID NO: 16) [Ex10] | – | A (“A” represents peptides with three times of confirmation of encapsulation.) | presence
3 | FBP0032: cyclic peptide with disulfide bond, X is 4-pentynoic acid (Pent4ynoyl-GQKGCKKTPKLASLSCTGF; disulfide 5-16 (inferred)) | – | A (“A” represents peptides with three times of confirmation of encapsulation.) | presence
4 | FBP0033: cyclic peptide with disulfide bond, X is 4-pentynoic acid (Pent4ynoyl-GRPGCGPRKPRTPKKCGSH; disulfide 5-16 (inferred)) | – | A (“A” represents peptides with three times of confirmation of encapsulation.) | presence
5 | GGKRPARGGKRPAR (SEQ ID NO: 19) (Synthetic amino acid sequence of the peptide NRP-1-2 which is to be tested for encapsulation with ferritin) [linear peptide] | – | A (“A” represents peptides with three times of confirmation of encapsulation.) | presence
6 | GIRLRGGIRLRGGIRLRG (SEQ ID NO: 22) (Synthetic amino acid sequence of the peptide GRP78-3 which is to be tested for encapsulation with ferritin) [linear peptide] | – | B (“B” represents peptides with two times of confirmation of encapsulation or less.) | presence
7 | HTSD (SEQ ID NO: 12) [EGFR] | – | A (“A” represents peptides with three times of confirmation of encapsulation.) | presence
8 | Pakti-L1: cyclic peptide, cysteine sulfur bonded to acetyl group at N-terminus ({CH2CO}-YILVRNRLLRVDCG; thioether N-13) | – | B (“B” represents peptides with two times of confirmation of encapsulation or less.) | presence
9 | QMARIPKRLARHQMAR (SEQ ID NO: 21) (Synthetic amino acid sequence of the peptide NS which is to be tested for encapsulation with ferritin) [linear peptide] | – | A (“A” represents peptides with three times of confirmation of encapsulation.) | presence
10 | RRRRRRRRRR (SEQ ID NO: 17) [Rx10] | – | C | –
11 | SPRGDLAVLGHKY (SEQ ID NO: 18) (Synthetic amino acid sequence of the peptide avb6 which is to be tested for encapsulation with ferritin) [ανβ6, linear peptide] | – | B (“B” represents peptides with two times of confirmation of encapsulation or less.) | presence
12 | VLWLKNR (SEQ ID NO: 14) (Synthetic amino acid sequence of the peptide FGF3-FP16 which is to be tested for encapsulation with ferritin) [linear peptide] | – | B (“B” represents peptides with two times of confirmation of encapsulation or less.) | presence
13 | cyclo (AS (D-Pro) PTWI (Dab) (Orn) (D-Dab)(Dab)W(Dab)(Dab)) [Murepavadin, reference compound] | – | A (“A” represents peptides with three times of confirmation of encapsulation.) | presence
14 | cyclo(PPYVPLII) (SEQ ID NO: 15) (cyclic; Synthetic amino acid sequence of the peptide Hymenistatin I which is to be tested for encapsulation with ferritin) [cyclic peptide purchased from Sigma-Aldrich, reference compound] | – | B (“B” represents peptides with two times of confirmation of encapsulation or less.) | presence
15 | cyclo(RGDFV) (SEQ ID NO: 13) [cyloRGDfV, reference compound] | – | B (“B” represents peptides with two times of confirmation of encapsulation or less.) | presence

Reference: patent US20220401560A1, “PEPTIDE ENCAPSULATING FERRITIN” (Ajinomoto Co., Inc., priority 2019, published 2022)
